Assay results taken from the supplement of paper PMC9112550, “Optimization of the antimicrobial peptide Bac7 by deep mutational scanning” (BMC Biology, 2022).

System: Escherichia coli TOP10
Assay: shrunken log2 fold change of peptide-encoding DNA abundance (4.5 h post-induction vs induction); higher = less antimicrobial activity (less host growth inhibition)
Conditions: time post-induction: 4.5 h; library: site-saturation at positions 5, 18, 19, 20
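Further: peptides expressed intracellularly from a pBAD plasmid library in pooled LB shake-flask culture, induced with 0.3% L-arabinose, DNA abundance read by NGS, three biological replicates, DESeq2 with apeglm shrinkage.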

| Sequence | shrunken log2 fold change |
| --- | --- |
| RRIRVRPPRLPRPRPRPAFAPRP | 0.666 |
| RRIRVRPPRLPRPRPRPAFEPRP | 0.125 |
| RRIRVRPPRLPRPRPRPAFFPRP | 0.084 |
| RRIRVRPPRLPRPRPRPAHHPRP | -0.011 |
| RRIRVRPPRLPRPRPRPAIDPRP | 0.0602 |
| RRIRVRPPRLPRPRPRPAIHPRP | -0.23 |
| RRIRVRPPRLPRPRPRPAINPRP | -0.259 |
| RRIRVRPPRLPRPRPRPALFPRP | 0.175 |
| RRIRVRPPRLPRPRPRPALWPRP | 0.57 |
| RRIRVRPPRLPRPRPRPAQLPRP | 0.0744 |
| RRIRVRPPRLPRPRPRPAQQPRP | 0.375 |
| RRIRVRPPRLPRPRPRPARFPRP | 0.16 |
| RRIRVRPPRLPRPRPRPARKPRP | 0.342 |
| RRIRVRPPRLPRPRPRPASSPRP | -0.122 |
| RRIRVRPPRLPRPRPRPATTPRP | 0.0611 |
| RRIRVRPPRLPRPRPRPAVEPRP | 0.565 |
| RRIRVRPPRLPRPRPRPAVGPRP | 0.186 |
| RRIRVRPPRLPRPRPRPCAIPRP | -0.379 |
| RRIRVRPPRLPRPRPRPCCHPRP | -0.217 |
| RRIRVRPPRLPRPRPRPCCPPRP | -0.25 |
| RRIRVRPPRLPRPRPRPCDDPRP | -0.0369 |
| RRIRVRPPRLPRPRPRPCDFPRP | 0.0154 |
| RRIRVRPPRLPRPRPRPCGAPRP | 0.279 |
| RRIRVRPPRLPRPRPRPCHWPRP | 0.169 |
| RRIRVRPPRLPRPRPRPCIGPRP | -0.8 |

| Sequence | shrunken log2 fold change |
| --- | --- |
| RRIRVRPPRLPRPRPRPCKKPRP | -0.433 |
| RRIRVRPPRLPRPRPRPCLHPRP | -0.947 |
| RRIRVRPPRLPRPRPRPCLKPRP | -0.469 |
| RRIRVRPPRLPRPRPRPCLTPRP | -0.0353 |
| RRIRVRPPRLPRPRPRPCMIPRP | -0.792 |
| RRIRVRPPRLPRPRPRPCMLPRP | -0.606 |
| RRIRVRPPRLPRPRPRPCMYPRP | -0.387 |
| RRIRVRPPRLPRPRPRPCPKPRP | -0.0457 |
| RRIRVRPPRLPRPRPRPCPPPRP | -0.216 |
| RRIRVRPPRLPRPRPRPCQHPRP | -0.09 |
| RRIRVRPPRLPRPRPRPCQVPRP | -0.0502 |
| RRIRVRPPRLPRPRPRPCRSPRP | 0.00156 |
| RRIRVRPPRLPRPRPRPCSAPRP | 0.0399 |
| RRIRVRPPRLPRPRPRPCSFPRP | 0.0114 |
| RRIRVRPPRLPRPRPRPCTGPRP | -1.78 |
| RRIRVRPPRLPRPRPRPCVAPRP | 0.159 |
| RRIRVRPPRLPRPRPRPCVDPRP | -0.0658 |
| RRIRVRPPRLPRPRPRPCVHPRP | -0.192 |
| RRIRVRPPRLPRPRPRPCWPPRP | 0.237 |
| RRIRVRPPRLPRPRPRPCYNPRP | -0.11 |
| RRIRVRPPRLPRPRPRPDAMPRP | 0.0806 |
| RRIRVRPPRLPRPRPRPDASPRP | 0.0719 |
| RRIRVRPPRLPRPRPRPDDNPRP | -0.0966 |
| RRIRVRPPRLPRPRPRPDFRPRP | 0.00256 |
| RRIRVRPPRLPRPRPRPDGFPRP | -0.0085 |

| Sequence | shrunken log2 fold change |
| --- | --- |
| RRIRVRPPRLPRPRPRPDGHPRP | -0.00145 |
| RRIRVRPPRLPRPRPRPDIEPRP | -0.0848 |
| RRIRVRPPRLPRPRPRPDIHPRP | -0.427 |
| RRIRVRPPRLPRPRPRPDLEPRP | -0.0782 |
| RRIRVRPPRLPRPRPRPDLKPRP | 0.00797 |
| RRIRVRPPRLPRPRPRPDMHPRP | -0.107 |
| RRIRVRPPRLPRPRPRPDNGPRP | 0.0214 |
| RRIRVRPPRLPRPRPRPDQLPRP | 0.112 |
| RRIRVRPPRLPRPRPRPDTMPRP | -0.177 |
| RRIRVRPPRLPRPRPRPDYEPRP | 0.0678 |
| RRIRVRPPRLPRPRPRPEAKPRP | 0.293 |
| RRIRVRPPRLPRPRPRPECCPRP | 0.0234 |
| RRIRVRPPRLPRPRPRPECGPRP | 0.691 |
| RRIRVRPPRLPRPRPRPEDCPRP | -0.0557 |
| RRIRVRPPRLPRPRPRPEDGPRP | -0.263 |
| RRIRVRPPRLPRPRPRPEEKPRP | -0.0261 |
| RRIRVRPPRLPRPRPRPEEQPRP | 0.0234 |
| RRIRVRPPRLPRPRPRPEFLPRP | 0.0805 |
| RRIRVRPPRLPRPRPRPEFSPRP | -0.0024 |
| RRIRVRPPRLPRPRPRPEGDPRP | 0.297 |
| RRIRVRPPRLPRPRPRPEGFPRP | 0.0396 |
| RRIRVRPPRLPRPRPRPEHCPRP | 0.404 |
| RRIRVRPPRLPRPRPRPEHSPRP | 0.115 |
| RRIRVRPPRLPRPRPRPEHTPRP | 0.224 |
| RRIRVRPPRLPRPRPRPEIWPRP | 0.223 |
